Test results as given in US20230061973A1 (LARIMAR THERAPEUTICS, published 2023).

What was measured:
[1] = molecular target: exemplary TAT frataxin fusion molecule (HIV-1) (UniProt Q16595); assay: bridging (ADA) assay in human plasma: antibody titrated with biotinylated and sulfo-tagged TAT frataxin fusion molecule, streptavidin plate, ECL read-out
[2] = molecular target: exemplary TAT frataxin fusion molecule (HIV-1) (UniProt Q16595); assay: immunopurification from plasma on antibody-coated magnetic beads, trypsin digest, LC/MS of peptide …
[3] = molecular target: exemplary TAT frataxin fusion molecule (HIV-1) (UniProt Q16595); assay: PK sandwich ELISA in human plasma, antibody as capture, HRP anti-frataxin mAb detection

polyclonal anti-TAT E8332 polyclonal antibody
EC50 (read off the curve) [1]: 20 µg/mL | LC/MS signal after immunopurification, fold higher than with anti-TAT antibody ab63957 [2]: 5 fold higher | Mean OD at plasma conc. 0.400 ng/mL [3]: 0.075 OD | Mean OD at plasma conc. 0.800 ng/mL [3]: 0.113 OD | Mean OD at plasma conc. 1.60 ng/mL [3]: 0.165 OD | Mean OD at plasma conc. 3.20 ng/mL [3]: 0.322 OD | Mean OD at plasma conc. 6.40 ng/mL [3]: 0.631 OD | Mean OD at plasma conc. 12.8 ng/mL [3]: 1.08 OD | Mean OD at plasma conc. 25.6 ng/mL [3]: 1.83 OD | Mean OD at plasma conc. 51.2 ng/mL [3]: 3.1 OD | S/N at plasma conc. 0.400 ng/mL [3]: 1.5 | S/N at plasma conc. 0.800 ng/mL [3]: 2.3 | S/N at plasma conc. 1.60 ng/mL [3]: 3.4 | S/N at plasma conc. 3.20 ng/mL [3]: 6.6 | S/N at plasma conc. 6.40 ng/mL [3]: 12.9 | S/N at plasma conc. 12.8 ng/mL [3]: 22.1 | S/N at plasma conc. 25.6 ng/mL [3]: 37.3 | S/N at plasma conc. 51.2 ng/mL [3]: 63.3
